Source: PMC7515726

How the values were obtained:
Test in all cases: affinity purification with mass spectrometry
[1] = target: Nuc3, disk patch 3 mutant nucleosome (hH3.2x10, hH4x24, hH2B.Cx9), biotinylated 185 bp 601 DNA (human) (UniProt P20671)
[2] = target: Nuc1, acidic patch mutant nucleosome (hH2A.Dx10), biotinylated 185 bp 601 DNA (human) (UniProt P62807)
[3] = target: Nuc2, disk patch 2 mutant nucleosome (hH2A.Dx2, hH2B.Cx8), biotinylated 185 bp 601 DNA (human) (UniProt Q71DI3)

Chain of RUVBL2 (Q9WTM5 whole entry): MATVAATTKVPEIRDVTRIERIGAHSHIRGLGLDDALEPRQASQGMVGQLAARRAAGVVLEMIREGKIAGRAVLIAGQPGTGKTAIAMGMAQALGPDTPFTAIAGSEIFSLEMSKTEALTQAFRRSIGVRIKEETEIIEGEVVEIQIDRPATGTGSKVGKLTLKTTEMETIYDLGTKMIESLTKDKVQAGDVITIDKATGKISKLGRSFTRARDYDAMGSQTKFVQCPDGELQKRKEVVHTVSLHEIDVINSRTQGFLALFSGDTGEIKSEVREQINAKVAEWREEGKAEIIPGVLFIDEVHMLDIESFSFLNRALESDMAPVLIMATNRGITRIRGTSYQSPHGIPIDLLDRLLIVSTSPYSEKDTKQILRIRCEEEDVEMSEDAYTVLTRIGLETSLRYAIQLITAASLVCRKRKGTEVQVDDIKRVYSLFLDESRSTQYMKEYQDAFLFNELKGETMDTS
Chain of RNF2 (RING finger protein 2) (Q9CQJ4 whole entry): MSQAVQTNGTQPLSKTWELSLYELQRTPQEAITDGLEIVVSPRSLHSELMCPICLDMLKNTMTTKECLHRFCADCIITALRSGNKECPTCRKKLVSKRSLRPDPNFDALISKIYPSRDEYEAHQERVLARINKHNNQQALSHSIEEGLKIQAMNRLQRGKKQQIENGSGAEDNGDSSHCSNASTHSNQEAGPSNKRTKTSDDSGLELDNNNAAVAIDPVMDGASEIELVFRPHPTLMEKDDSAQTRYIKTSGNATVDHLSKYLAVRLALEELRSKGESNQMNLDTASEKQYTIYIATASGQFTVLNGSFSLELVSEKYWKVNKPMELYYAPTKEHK
Chain of RUVBL1 (P60122 whole entry): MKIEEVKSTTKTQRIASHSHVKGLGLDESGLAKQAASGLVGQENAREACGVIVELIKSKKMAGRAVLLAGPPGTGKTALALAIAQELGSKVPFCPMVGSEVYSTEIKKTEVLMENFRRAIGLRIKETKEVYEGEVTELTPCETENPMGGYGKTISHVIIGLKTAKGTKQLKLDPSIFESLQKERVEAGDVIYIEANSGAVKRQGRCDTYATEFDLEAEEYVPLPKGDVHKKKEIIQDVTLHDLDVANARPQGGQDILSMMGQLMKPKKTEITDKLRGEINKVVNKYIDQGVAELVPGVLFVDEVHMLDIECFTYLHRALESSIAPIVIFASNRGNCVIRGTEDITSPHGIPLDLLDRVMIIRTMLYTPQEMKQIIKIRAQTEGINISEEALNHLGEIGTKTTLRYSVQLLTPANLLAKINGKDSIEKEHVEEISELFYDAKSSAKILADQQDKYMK

RUVBL2 (from UniProt Q9WTM5 1-463) (natural protein)
fold decrease in binding vs wild-type nucleosome [1]: 1.38 fold

DNMT1 DNA methyltransferase (from UniProt P13864 1-1620) (enzyme)
fold decrease in binding vs wild-type nucleosome [2]: 1.72 fold

HMGN2 (high mobility group nucleosome-binding domain-containing protein 2) (from UniProt P09602 1-90) (natural protein)
fold decrease in binding vs wild-type nucleosome [2]: 27 fold
fold decrease in binding vs wild-type nucleosome [3]: 13 fold

RNF2 (RING finger protein 2) (from UniProt Q9CQJ4 1-336) (natural protein)
fold decrease in binding vs wild-type nucleosome [2]: 1.5 fold

methylcytosine dioxygenase Tet1 (from UniProt Q3URK3 1-2039) (enzyme)
fold decrease in binding vs wild-type nucleosome [2]: 1.8 fold

RUVBL1 (from UniProt P60122 1-456) (natural protein)
fold decrease in binding vs wild-type nucleosome [1]: 1.33 fold
